Residue numbers refer to the chain shown, from its start. In names and notes the source's numbering stands.

B1: L25E (designed binder)
chain: SMEEEVEKAAKEYEKKKKEAIEKHEEKLKAKDKEAAERFLKELEEAAKEYAKDEAKTMSEEEAKRRAKKYKEKVLLSELSEEEQKEIKEAEEKLVRTILKYVEEAAK
B2: E49N (designed binder)
chain: B1 chain with E25L, E49N
B3: R96F (designed binder)
chain: B1 chain with E25L, R96F
B4: K73T (designed binder)
chain: B1 chain with E25L, K73T
B5: K71C (designed binder)
chain: B1 chain with E25L, K71C
B6: A51Y (designed binder)
chain: B1 chain with E25L, A51Y
B7: R38D (designed binder)
chain: B1 chain with E25L, R38D
B8: K56S (designed binder)
chain: B1 chain with E25L, K56S
B9: A20N (designed binder)
chain: B1 chain with A20N, E25L
B10: E62M (designed binder)
chain: B1 chain with E25L, E62M
B11: H24N (designed binder)
chain: B1 chain with H24N, E25L
B12: K17Q (designed binder)
chain: B1 chain with K17Q, E25L
B13: R65G (designed binder)
chain: B1 chain with E25L, R65G
B14: E78V (designed binder)
chain: B1 chain with E25L, E78V
B15: E5C (designed binder)
chain: B1 chain with E5C, E25L
B16: E22Y (designed binder)
chain: B1 chain with E22Y, E25L
B17: L76W (designed binder)
chain: B1 chain with E25L, L76W
B18: D32I (designed binder)
chain: B1 chain with E25L, D32I
B19: K29S (designed binder)
chain: B1 chain with E25L, K29S
B20: L25N (designed binder)
chain: B1 chain with E25N
B21: E60Y (designed binder)
chain: B1 chain with E25L, E60Y
B22: Y70L (designed binder)
chain: B1 chain with E25L, Y70L
B23: K56N (designed binder)
chain: B1 chain with E25L, K56N
B24: K85W (designed binder)
chain: B1 chain with E25L, K85W
B25: K85M (designed binder)
chain: B1 chain with E25L, K85M
B26: V102Y (designed binder)
chain: B1 chain with E25L, V102Y
B27: V74A (designed binder)
chain: B1 chain with E25L, V74A
B28: E49H (designed binder)
chain: B1 chain with E25L, E49H
B29: S1E (designed binder)
chain: B1 chain with S1E, E25L
B30: D53Q (designed binder)
chain: B1 chain with E25L, D53Q
B31: A36R (designed binder)
chain: B1 chain with E25L, A36R
B32: E49F (designed binder)
chain: B1 chain with E25L, E49F
B33: E7W (designed binder)
chain: B1 chain with E7W, E25L
B34: A55I (designed binder)
chain: B1 chain with E25L, A55I
B35: K93I (designed binder)
chain: B1 chain with E25L, K93I
B36: L75V (designed binder)
chain: B1 chain with E25L, L75V
B37: K69L (designed binder)
chain: B1 chain with E25L, K69L
B38: I87E (designed binder)
chain: B1 chain with E25L, I87E
B39: E60K (designed binder)
chain: B1 chain with E25L, E60K
B40: E42R (designed binder)
chain: B1 chain with E25L, E42R
B41: I21R (designed binder)
chain: B1 chain with I21R, E25L
B42: R66F (designed binder)
chain: B1 chain with E25L, R66F
B43: E5V (designed binder)
chain: B1 chain with E5V, E25L
B44: F39L (designed binder)
chain: B1 chain with E25L, F39L
B45: K18P (designed binder)
chain: B1 chain with K18P, E25L
B46: K11N (designed binder)
chain: B1 chain with K11N, E25L
B47: V6D (designed binder)
chain: B1 chain with V6D, E25L
B48: E60Q (designed binder)
chain: B1 chain with E25L, E60Q
B49: V102F (designed binder)
chain: B1 chain with E25L, V102F
B50: V102S (designed binder)
chain: B1 chain with E25L, V102S
B51: E44N (designed binder)
chain: B1 chain with E25L, E44N
B52: K88H (designed binder)
chain: B1 chain with E25L, K88H
B53: L99A (designed binder)
chain: B1 chain with E25L, L99A
B54: K33Y (designed binder)
chain: B1 chain with E25L, K33Y
B55: E19S (designed binder)
chain: B1 chain with E19S, E25L

In the assay the target is T1, TNFR1 (Homo sapiens, UniProt P19438).
T1 chain: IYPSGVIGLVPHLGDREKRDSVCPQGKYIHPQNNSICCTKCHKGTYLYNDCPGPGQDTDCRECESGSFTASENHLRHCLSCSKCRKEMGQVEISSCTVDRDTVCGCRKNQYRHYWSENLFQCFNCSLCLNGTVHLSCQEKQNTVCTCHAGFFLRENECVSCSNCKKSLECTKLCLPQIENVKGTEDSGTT
The assay is described as follows: yeast display SC50.
As to B1, the “apparent Kd (screen)” value was 2.73 nM.
As to B2, the “apparent Kd (screen)” value came to 10.4 nM.
As for B3, the “apparent Kd (screen)” value was 2.48 nM.
Regarding B4, the “apparent Kd (screen)” value is 13.8 nM.
The result for B5 reads 0.446 nM; that for B6, 0.49 nM; that for B7, 3 nM.
As to B8, the “apparent Kd (screen)” value came to 7.78 nM.
The result for B9 reads 0.539 nM; that for B10, 0.446 nM; that for B11, 0.446 nM.
As for B12, the “apparent Kd (screen)” value worked out at 1.16 nM.
B13: the “apparent Kd (screen)” value amounted to 0.956 nM.
Take B14: the “apparent Kd (screen)” value was 0.593 nM.
Consider B15, for which the “apparent Kd (screen)” value was 1.05 nM.
For B16, the “apparent Kd (screen)” value came out at 1.27 nM.
For the molecule B17, the “apparent Kd (screen)” value turned out to be 3 nM.
B18: the “apparent Kd (screen)” value stood at 4.83 nM.
As for B19, the “apparent Kd (screen)” value was found to be 0.446 nM.
Consider B20, for which the “apparent Kd (screen)” value worked out at 0.539 nM.
Next, B21: 0.718 nM; B22: 8.56 nM.
In the case of B23, the “apparent Kd (screen)” value came to 4.39 nM.
The result for B24 reads 0.446 nM.
Next, B25: 0.956 nM; B26: 2.73 nM.
Regarding B27, the “apparent Kd (screen)” value was found to be 16.7 nM.
As for B28, the “apparent Kd (screen)” value turned out to be 10.4 nM.
As for B29, the “apparent Kd (screen)” value amounted to 0.49 nM.
B30: the “apparent Kd (screen)” value was 2.05 nM.
The result for B31 reads 0.718 nM; that for B32, 9.41 nM; that for B33, 12.5 nM.
As to B34, the “apparent Kd (screen)” value was 3 nM.
In the case of B35, the “apparent Kd (screen)” value was 1.69 nM.
As for B36, the “apparent Kd (screen)” value is 0.446 nM.
The result for B37 reads 0.446 nM.
The result for B38 reads 9.41 nM; that for B39, 1.69 nM; that for B40, 7.78 nM.
Turning to B41, the “apparent Kd (screen)” value amounted to 0.869 nM.
Take B42: the “apparent Kd (screen)” value came to 22.2 nM.
Next, B43: 1.27 nM; B44: 1.16 nM.
On to B45, for which the “apparent Kd (screen)” value is 5.84 nM.
For the molecule B46, the “apparent Kd (screen)” value is 0.446 nM.
Take B47: the “apparent Kd (screen)” value was 13.8 nM.
Consider B48, for which the “apparent Kd (screen)” value was 1.05 nM.
Next, B49: 10.4 nM; B50: 0.446 nM.
As for B51, the “apparent Kd (screen)” value worked out at 1.05 nM.
For the molecule B52, the “apparent Kd (screen)” value was found to be 0.49 nM.
As for B53, the “apparent Kd (screen)” value amounted to 16.7 nM.
Next, B54: 0.593 nM.
Take B55: the “apparent Kd (screen)” value came to 0.446 nM.
